Experimental data as given in doi:10.1101/2024.11.20.624486.
pKd: −log10 of the molar value.

Target: GST-HktR (Pseudomonas syringae pv. actinidiae M228)
Experiment: MST

RpoD-His6 (natural protein)
pKd: 5.75
